What all share (assay): cell-based or functional assay
For assay [1], the target named is T1, human CD28 (human, UniProt P10747 19-220).
Assay [2] concerns the target T1, human CD28. This is another data set of the same source.
The target in assay [3] is T1, human CD28. This is another data set of the same source.

B1: 1h-80-1 (other)
VL: DIQMTQSPSSLSASVGDRVTITCRASQRIGSNLAWYQQKPGRAPKLLIYWASLLQSGVPSRFSGSGSGTDFTLIISSLQPEDFATYYCQQTRSAPFAFGQGTKVEIKR
Turning to B1, in the assay with human CD28 [1], the “Luciferase assay (EC50)” value was 366 nM and the “MLR assay (EC50)” value was found to be 438 nM.

B2: 1h-99-237 (other)
VH: EVQLLESGGGLVQPGGSLRLSCAASGFTFDSANMSWARQAPGKGLEWVSWIEAPGVQTFYADSVRGRFTISRDNSKNTLYLQMNSLRAEDTAVYYCARSPFGPLYGFDYRGQGTLVTVSS
Take B2: in the assay with human CD28 [1], the “Luciferase assay (EC50)” value amounted to 3 nM and the “MLR assay (EC50)” value came to 3 nM. In the assay with human CD28 [2], the “DC-MLR Assay (EC50 nM)” value amounted to 3 nM and the “Luciferase assay (EC50 nM)” value stood at 3 nM.

B3: 1h-99-238 40K linear PEG (other)
VH: EVQLLESGGGLVQPGGSLRLSCAASGFTFDSANMSWARQAPGKGLEWVSWIEASGVQTFYADSVKGRFTISRDNSKNTLYLQMNSLRAEDTAVYYCAKSPFGPLYGFDYRGQGTLVTVSS
modifications: 40K linear PEG; site of attachment not stated
Regarding B3, in the assay with human CD28 [2], the “DC-MLR Assay (EC50 nM)” value worked out at 29 nM and the “Luciferase assay (EC50 nM)” value is 4.5 nM.

B4: 1h-99-2 40K linear PEG (other)
VH: EVQLLESGGGLVQPGGSLRLSCAASGFTFDSANMSWVRQAPGKGLEWVSWIEDTGTQTFYADSVKGRFTISRDNSKNTLYLQMNSLRAEDTAVYYCAKSPFGPLYGFDYRGQGTLVTVSS
modifications: 40K linear PEG; site of attachment not stated
On to B4, for which, in the assay with human CD28 [2], the “DC-MLR Assay (EC50 nM)” value stood at 390 nM and the “Luciferase assay (EC50 nM)” value came out at 100 nM.

B5: 1h-99-2 (other)
VH: EVQLLESGGGLVQPGGSLRLSCAASGFTFDSANMSWVRQAPGKGLEWVSWIEDTGTQTFYADSVKGRFTISRDNSKNTLYLQMNSLRAEDTAVYYCAKSPFGPLYGFDYRGQGTLVTVSS
On to B5, for which, in the assay with human CD28 [1], the “Luciferase assay (EC50)” value was 17 nM and the “MLR assay (EC50)” value was 13 nM. In the assay with human CD28 [2], the “DC-MLR Assay (EC50 nM)” value came out at 13 nM and the “Luciferase assay (EC50 nM)” value is 17 nM.

B6: 1h-99-2 40K branched PEG (other)
VH: EVQLLESGGGLVQPGGSLRLSCAASGFTFDSANMSWVRQAPGKGLEWVSWIEDTGTQTFYADSVKGRFTISRDNSKNTLYLQMNSLRAEDTAVYYCAKSPFGPLYGFDYRGQGTLVTVSS
modifications: 40K branched PEG; site of attachment not stated
As for B6, in the assay with human CD28 [2], the “DC-MLR Assay (EC50 nM)” value is 383 nM and the “Luciferase assay (EC50 nM)” value was 117 nM.

B7: 1h-99-237 40K linear PEG (other)
VH: EVQLLESGGGLVQPGGSLRLSCAASGFTFDSANMSWARQAPGKGLEWVSWIEAPGVQTFYADSVRGRFTISRDNSKNTLYLQMNSLRAEDTAVYYCARSPFGPLYGFDYRGQGTLVTVSS
modifications: 40K linear PEG; site of attachment not stated
In the case of B7, the “DC-MLR Assay (EC50 nM)” value with human CD28 [2] amounted to 2 nM.

B8: 1h-99-238 (other)
VH: EVQLLESGGGLVQPGGSLRLSCAASGFTFDSANMSWARQAPGKGLEWVSWIEASGVQTFYADSVKGRFTISRDNSKNTLYLQMNSLRAEDTAVYYCAKSPFGPLYGFDYRGQGTLVTVSS
For B8, in the assay with human CD28 [1], the “Luciferase assay (EC50)” value is 3 nM and the “MLR assay (EC50)” value amounted to 5 nM. In the assay with human CD28 [2], the “DC-MLR Assay (EC50 nM)” value was 5 nM and the “Luciferase assay (EC50 nM)” value is 3 nM.

B9: 1h-239-8 (other)
VL: DIQMTQSPSSLSASVGDRVTITCRASQSIYPFLEWYQQKPGKAPKLLIYFTSRLQSGVPSRFSGSGSGTDFTLTISSLQPEDFATYYCLQNVTNPATFSQGTKVEIKR
On to B9, for which the “Luciferase assay (EC50)” value with human CD28 [1] turned out to be 10 nM. In the assay with human CD28 [2], the “DC-MLR Assay (EC50 nM)” value was 13 nM and the “Luciferase assay (EC50 nM)” value turned out to be 10 nM.

B10: 1h-239-891(Q79C) 40K branched PEG (other)
VL: DIQMTQSPSSLSASVGDRVTITCRASRPIWPFLEWYQQKPGKAPKLLIYFTSRLRHGVPSRFSGSGSGTDFTLTISSLCPEDFATYYCLQNVANPATFSQGTKVEIKR
modifications: 40K branched PEG; engineered cysteine Q79C
B10: the “DC-MLR Assay (EC50 nM)” value with human CD28 [2] amounted to 4.9 nM.

B11: 1h-239-891(S9C) 40K branched PEG (other)
VL: DIQMTQSPCSLSASVGDRVTITCRASRPIWPFLEWYQQKPGKAPKLLIYFTSRLRHGVPSRFSGSGSGTDFTLTISSLQPEDFATYYCLQNVANPATFSQGTKVEIKR
modifications: 40K branched PEG; engineered cysteine S9C
Consider B11, for which, in the assay with human CD28 [2], the “DC-MLR Assay (EC50 nM)” value turned out to be 1.3 nM.

B12: 1h-239-891(Q3C) 40K branched PEG (other)
VL: DICMTQSPSSLSASVGDRVTITCRASRPIWPFLEWYQQKPGKAPKLLIYFTSRLRHGVPSRFSGSGSGTDFTLTISSLQPEDFATYYCLQNVANPATFSQGTKVEIKR
modifications: 40K branched PEG; engineered cysteine Q3C
B12: the “DC-MLR Assay (EC50 nM)” value with human CD28 [2] stood at 1.5 nM.

B13: 1h-239-890 (other)
VL: DIQMTQSPSSLSASVGDRVTITCRASRPIWPFLEWYQQKPGKAPKLLIYFTSRLARGVPSRFSGSGSGTDFTLTISSLQPEDFATYYCLQNVANPATFSQGTKVEIKR
B13: in the assay with human CD28 [3], the “IFNγ (EC50 nM), DC-driven MLR” value was found to be 0.3 nM; the “IL-2 (EC50 nM), DC-driven MLR” value stood at 0.1 nM; the “TNFα (EC50 nM), DC-driven MLR” value amounted to 0.2 nM.

B14: 1h-239-891(S60C) 30K linear PEG (other)
VL: DIQMTQSPSSLSASVGDRVTITCRASRPIWPFLEWYQQKPGKAPKLLIYFTSRLRHGVPCRFSGSGSGTDFTLTISSLQPEDFATYYCLQNVANPATFSQGTKVEIKR
modifications: 30K linear PEG; engineered cysteine S60C
For B14, the “DC-MLR Assay (EC50 nM)” value with human CD28 [2] was found to be 0.8 nM.

B15: 1h-239-891(K42C) 40K branched PEG (other)
VL: DIQMTQSPSSLSASVGDRVTITCRASRPIWPFLEWYQQKPGCAPKLLIYFTSRLRHGVPSRFSGSGSGTDFTLTISSLQPEDFATYYCLQNVANPATFSQGTKVEIKR
modifications: 40K branched PEG; engineered cysteine K42C
B15: the “DC-MLR Assay (EC50 nM)” value with human CD28 [2] was 13 nM.

B16: 1h-239-850 (other)
VL: DIQMTQSPSSLSASVGDRVTITCRASRPIWPFLEWYQQKPGKAPKLLIYFTSRLQSGVPSRFSGSGSGTDFTLTISSLQPEDFATYYCLQNVSMPATFSQGTKVEIKR
On to B16, for which, in the assay with human CD28 [1], the “Luciferase assay (EC50)” value was determined as 9 nM and the “MLR assay (EC50)” value worked out at 2 nM. In addition, in the assay with human CD28 [2], the “DC-MLR Assay (EC50 nM)” value was determined as 2 nM and the “Luciferase assay (EC50 nM)” value turned out to be 9 nM.

B17: 1h-239-891(S60C) 40K branched PEG (other)
VL: DIQMTQSPSSLSASVGDRVTITCRASRPIWPFLEWYQQKPGKAPKLLIYFTSRLRHGVPCRFSGSGSGTDFTLTISSLQPEDFATYYCLQNVANPATFSQGTKVEIKR
modifications: 40K branched PEG; engineered cysteine S60C
On to B17, for which the “DC-MLR Assay (EC50 nM)” value with human CD28 [2] amounted to 1.2 nM.

B18: 1h-239-850 40K linear PEG (other)
VL: DIQMTQSPSSLSASVGDRVTITCRASRPIWPFLEWYQQKPGKAPKLLIYFTSRLQSGVPSRFSGSGSGTDFTLTISSLQPEDFATYYCLQNVSMPATFSQGTKVEIKR
modifications: 40K linear PEG; site of attachment not stated
Turning to B18, in the assay with human CD28 [2], the “DC-MLR Assay (EC50 nM)” value came to 4 nM and the “Luciferase assay (EC50 nM)” value turned out to be 2 nM.

B19: 1h-239-8 40K linear PEG (other)
VL: DIQMTQSPSSLSASVGDRVTITCRASQSIYPFLEWYQQKPGKAPKLLIYFTSRLQSGVPSRFSGSGSGTDFTLTISSLQPEDFATYYCLQNVTNPATFSQGTKVEIKR
modifications: 40K linear PEG; site of attachment not stated
Turning to B19, in the assay with human CD28 [2], the “DC-MLR Assay (EC50 nM)” value turned out to be 285 nM and the “Luciferase assay (EC50 nM)” value turned out to be 510 nM.

B20: 1h-239-891(G41C) 40K branched PEG (other)
VL: DIQMTQSPSSLSASVGDRVTITCRASRPIWPFLEWYQQKPCKAPKLLIYFTSRLRHGVPSRFSGSGSGTDFTLTISSLQPEDFATYYCLQNVANPATFSQGTKVEIKR
modifications: 40K branched PEG; engineered cysteine G41C
Regarding B20, the “DC-MLR Assay (EC50 nM)” value with human CD28 [2] was 2 nM.

The record behind these values is patent publication US20130109846A1 (published 2013).
